The values that follow come from US20240117018A1.

Experiment in all cases: cell-based or functional assay
For test [1], the target named is HIV-1 Env of pseudovirus CNE8 (HIV-1).
In test [2] the target is HIV-1 Env of pseudovirus C2101.c01 (HIV-1).
Test [3] has as its target HIV-1 Env of pseudovirus T250-4 (HIV-1).
Test [4] concerns the target HIV-1 Env of pseudovirus 0260.v5.c36 (HIV-1).
Test [5] addresses HIV-1 Env of pseudovirus 3365.v2.c2 (HIV-1).

For the substance 10-1074 (antibody), the IC50 neutralization (TZM.bl) in test [1] and in test [2] was more than 50 µg/mL throughout. Further, the IC80 neutralization (TZM.bl) in test [1] and in test [2] was more than 50 µg/mL in each case.

In test [2], 10E8 (antibody) gave an IC50 neutralization (TZM.bl) of 1.92 µg/mL and an IC80 neutralization (TZM.bl) of 8.26 µg/mL.

As to N49P9 (antibody), the neutralization IC50 in test [3] was more than 50 µg/mL; in test [4], 0.466 µg/mL; in test [5], 0.059 µg/mL; in test [1], 0.056 µg/mL; in test [2], 0.051 µg/mL. In addition, the neutralization IC80 in test [3] is more than 50 µg/mL; in test [4] it was 1.85 µg/mL; in test [5], 0.198 µg/mL; in test [1], 0.26 µg/mL; in test [2] it was 0.209 µg/mL. Further, the neutralization MPI in test [3] stood at 25; in test [4] it was 100; in test [5] it was 100; in test [1] it was 100; in test [2] it was 100.

N49P9.1 (antibody): the neutralization IC50 in test [3] was more than 50 µg/mL; in test [4] it was 0.519 µg/mL; in test [5], 0.055 µg/mL; in test [1], 0.228 µg/mL; in test [2], 0.085 µg/mL. Also, the neutralization IC80 was more than 50 µg/mL in test [3]; 0.151 µg/mL in test [4]; 0.725 µg/mL in test [5]; 0.921 µg/mL in test [1]; 0.227 µg/mL in test [2]. For the same substance, the neutralization MPI in test [3] turned out to be 7; in test [4], 100; in test [5] it was 100; in test [1], 100; in test [2] it was 100.

In the case of N49P19 (antibody), the neutralization IC50 in test [3] is more than 50 µg/mL; in test [4] it was 1.25 µg/mL; in test [5], 0.579 µg/mL; in test [1], 0.772 µg/mL; in test [2], 0.978 µg/mL. For the same substance, the neutralization IC80 is more than 50 µg/mL in test [3]; 8.52 µg/mL in test [4]; 2.09 µg/mL in test [5]; 4.84 µg/mL in test [1]; 4.19 µg/mL in test [2]. Further, the neutralization MPI in test [3] amounted to 7; in test [4], 99; in test [5], 99; in test [1], 97; in test [2], 100.

With PG9 (antibody), in test [2], the IC50 neutralization (TZM.bl) is 0.034 µg/mL and the IC80 neutralization (TZM.bl) is 0.099 µg/mL.

In test [2], PG16 (antibody) came in with an IC50 neutralization (TZM.bl) of 0.012 µg/mL and an IC80 neutralization (TZM.bl) of 0.238 µg/mL.
